B1: NhcS: phosphopantetheinyl transferase (heterocyst carrier protein synthase) from Nodularia spumigena NSOR10 (protein)
chain: MTALNHLWLPVPTNLTLLPNDVHIWRIHLDVPEAQQQNLLATLSGDELTRANRFHFQEHRQRFIAGRGILRSILGSYLGIEPQRVLFDYQERGKPILADSLAKSGLWFNLSHSQGLALCAVNYHNRIGIDLEYIRRMSDVEALAKRFFLPREYDVVRSLSDHQQQEIFFRYWTCKEAYLKATGEGLAQLEQVEVLLNPTEPAQLQTSESWSLFELRAAEDYFAAVVVEGSGCNLQCWQY

How the values were obtained:
[1] = test system: E. coli AcpS; conditions: reported (21,40); with respect to CoA; cited from earlier work
[2] = test system: Mpcp; experiment: NhcS PPT assay, ESI-MS; format: biochemical, Microcystis aeruginosa; conditions: 30 min assay
Procedure: (§1) PPT assays were carried out as previously described in Finking, R., et al., (2002) Characterization of a new type of phosphopantetheinyl transferase for fatty acid and siderophore synthesis in Pseudomonas aeruginosa. J Biol Chem 277:50293-302). In brief, a 100-400 μL reaction comprising of 50 mM Tris-HCl pH 7.4, 12.5 mM MgCl, 0.5 mM CoA, 2 μM DTT, 30 μg of the respective carrier proteins (CPs) and 300 nM of PPT was incubated at 37° C. for 30 minutes. Reactions were terminated by the addition of 1 ml of 10% TCA. Assays were precipitated overnight at −20° C. before at centrifugation 4° C., for 15 mins at 16,000 g. Protein pellets were analysed by electrospray ionisation mass spectrometry (ESI-MS). Spectra were acquired using an API QStar Pulsar i hybrid tandem mass spectrometer (Applied Biosystems, Foster City Calif.). Samples (˜200-400 fmol) were dissolved in water:acetonitrile:formic acid (50:49:1), loaded (1 μl) into nanospray needles (Proxeon, Denmark) and the tip positioned ˜10 mm from the orifice. Nitrogen was used as curtain gas and a potential of 900 V applied to the needle. A T of MS scan was acquired (m/z 550-2000, 1 second) and accumulated for ˜1 minute into a single file. […]
(§2) Activity was detected by ionisation mass spectrometry through the mass addition of […], relating to the incorporation of the pantetheinyl arm of CoA transferred by the PPT to the CP (FIG. 17).

[3] = test system: Nppcp; experiment: NhcS PPT assay, ESI-MS; format: biochemical, Nostoc punctiforme; conditions: 30 minutes, 37° C.
Procedure: as §1, §2

[4] = test system: HetM ArCP; experiment: NhcS PPT assay, ESI-MS; format: biochemical, N. punctiforme ATCC29133; conditions: 30 minutes, 37° C.
Procedure: as §1, §2

[5] = test system: Synechocystis sp. PCC6803; experiment: Complementation of Sppt gene disruption with NsPPT; format: cell-based; conditions: PCR screening of segregation
Text: A 2.5 kb fragment including Sppt (slr0495, Swissprot accession number Q55185) was amplified with the primers sirup (5′-[…]-3′) (SEQ ID NO: 7) and slrdn (5′-[…]-3′) (SEQ ID NO: 8). This fragment was cloned into pGEM-T-Easy (Promega) and digested with the restriction enzyme AvaI. A chloramphenicol (Chl^R) resistance cassette was ligated into this site and the resulting plasmid, pGCSlr, was naturally transformed into Synechocystis sp. PCC6803 to insertionally inactivate Sppt using methods described in Eaton-Rye, J., 2004 The construction of gene knockouts in the cyanobacterium Synechocystis sp. PCC 6803, Methods Mol. Biol.; 274:309-24. The Synechocystis sp. PCC6803 wildtype (WT) was also transformed with a chloramphenicol resistance knockout plasmid as a positive control for strain viability. Briefly, approximately 2 ml Synechocystis sp. PCC6803 cells were centrifuged and washed in BG-11 media. After resuspension in […] BG-11, 3 μg ml^−1 plasmid was added and the cells were incubated at 25° C. in 30 μmol m^−2 sec^−1 constant light for 6 hours. The cells were spread onto sterile nitrocellulose filters (0.45 μm, Millipore, Billerica Mass.) on non-selective BGTS plates (BG-11, 10 mM TES, 0.3% sodium thiosulfate, 1% agar). After 36 hours, the filters were transferred to selective BGTS plates with 10 μg ml^−1 chloramphenicol. […]

Molecule | kcat value [1] | pantetheinylation of Mpcp [2] | pantetheinylation of Nppcp [3] | conversion of apo-ArCP to holo-ArCP [4] | Sppt gene disruption in NsPPT-complemented strain [5]
CC(C)(COP(=O)(O)OP(=O)(O)OC[C@H]1O[C@@H](n2cnc3c(N)ncnc32)[C@H](O)[C@@H]1OP(=O)(O)O)[C@@H](O)C(=O)NCCC(=O)NCCS [CoA, co-enzyme A] | approximately 10 min^d | – | – | – | –
B1 | – | Complete pantetheinylation | Nppcp was pantetheinylated | conversion of the apo-ArCP (15.75 kDa) to the holo-ArCP (16.05 kDa) is seen | Sppt was effectively disrupted in the NsPPT-complemented strain

Reference: US9115359B2, “Methods for producing secondary metabolites” (NewSouth Innovations Pty Limited, priority 2007, dated 2015)
